Here are results for 26 molecules from patent publication US20230381281A1, “PHARMACEUTICAL COMPOSITION COMPRISING GLUCAGON/GLP-1/GIP TRIPLE AGONIST OR LONG-ACTING CONJUGATE THEREOF FOR PREVENTING OR TREATING LUPUS-RELATED DISEASES” (HANMI PHARM. CO., LTD., priority 2020, published 2023).

Experiment in all cases: cell-based or functional assay
One assay has as its target T1, human GIP receptor (human, UniProt P48546 22-466).
T1 sequence (looked up): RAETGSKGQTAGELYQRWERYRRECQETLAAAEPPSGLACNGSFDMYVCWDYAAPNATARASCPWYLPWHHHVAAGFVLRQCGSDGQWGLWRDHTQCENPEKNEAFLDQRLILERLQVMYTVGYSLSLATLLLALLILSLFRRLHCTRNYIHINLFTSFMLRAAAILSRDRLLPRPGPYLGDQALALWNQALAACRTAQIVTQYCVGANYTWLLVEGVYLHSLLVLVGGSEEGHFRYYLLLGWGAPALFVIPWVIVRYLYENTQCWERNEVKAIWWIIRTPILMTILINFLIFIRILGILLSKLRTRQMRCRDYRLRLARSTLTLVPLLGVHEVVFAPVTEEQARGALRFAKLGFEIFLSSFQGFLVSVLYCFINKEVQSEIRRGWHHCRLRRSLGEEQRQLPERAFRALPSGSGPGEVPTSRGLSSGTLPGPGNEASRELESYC

In another assay the target is human GCG receptor (human, UniProt P47871 26-477).
The target in a further assay is human GLP-1 receptor (human, UniProt P43220 24-463).

Bridge positions count the residues as written; N and C are the ends. Square brackets hold non-standard residues; d marks the D form. Ends that are not written are not given here. * marks the point of attachment. Acetyl(2-(4-imidazolyl)) = O=C(Cc1c[nH]cn1)*; Aib = CC(C)(N)C(=O)O Where only a bound is given, the exact number is not on record here.

Sequence of human GCG receptor (P47871 26-477): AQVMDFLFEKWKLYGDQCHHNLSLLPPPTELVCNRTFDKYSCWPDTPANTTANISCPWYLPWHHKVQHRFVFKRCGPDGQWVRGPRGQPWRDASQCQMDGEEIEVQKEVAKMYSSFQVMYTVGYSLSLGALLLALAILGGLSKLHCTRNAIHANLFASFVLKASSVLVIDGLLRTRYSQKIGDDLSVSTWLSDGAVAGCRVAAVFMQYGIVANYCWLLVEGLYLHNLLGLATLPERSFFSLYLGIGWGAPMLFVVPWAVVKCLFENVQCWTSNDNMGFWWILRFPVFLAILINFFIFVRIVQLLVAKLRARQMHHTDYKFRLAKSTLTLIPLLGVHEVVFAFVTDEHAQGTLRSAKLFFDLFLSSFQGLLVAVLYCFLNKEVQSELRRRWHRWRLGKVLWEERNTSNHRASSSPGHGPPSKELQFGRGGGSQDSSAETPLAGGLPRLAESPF

With H[Aib]QGTFTSDYSKYLDEKRAKEFVQWLLDHHPSSGQPPPSC (bridge 16-20) [Triple agonist of SEQ ID NO: 50], in the assay with human GIP receptor, the “In vitro activity compared to native peptide (%) vs GIP” value (from here on “In vitro activity … (%) vs GIP”) was 2.7%. In addition, the “In vitro activity compared to native peptide (%) vs Glucagon” value (“In vitro activity … (%) vs Glucagon” for short) with human GCG receptor is 50.5%. In the assay with human GLP-1 receptor, the “In vitro activity compared to native peptide (%) vs GLP-1” value (from here on “In vitro activity … (%) vs GLP-1”) was 67.4%.
The like results for {Acetyl(2-(4-imidazolyl))}-[Aib]QGTFTSDYSIAMDEIACKDFVNWLLNTK (bridge 15-19) [Triple agonist of SEQ ID NO: 61] were, in that order, 2.8%, under 0.1% and 59.8%.
As for H[Aib]QGTFTSDVSKYLDGQAAKEFVAWLLKGC [Triple agonist of SEQ ID NO: 7], in the assay with human GIP receptor, the “In vitro activity … (%) vs GIP” value was under 0.1%. Further, the “In vitro activity … (%) vs Glucagon” value with human GCG receptor was under 0.1%. Also, in the assay with human GLP-1 receptor, the “In vitro activity … (%) vs GLP-1” value came to 13.7%.
Turning to H[Aib]QGTFTSDYSKCLDEKRAKEFVQWLLDHHPSSGQPPPS (bridge 16-20) [Triple agonist of SEQ ID NO: 65], the “In vitro activity … (%) vs GIP” value in the assay with human GIP receptor amounted to 11.6%. Also, the “In vitro activity … (%) vs Glucagon” value in the assay with human GCG receptor came to 25.2%. Besides, in the assay with human GLP-1 receptor, the “In vitro activity … (%) vs GLP-1” value worked out at 95.4%.
On the same counts, the results for H[Aib]QGTFTSDYSKYLDEKRQKEFVQWLLDTC (bridge 16-20) [Triple agonist of SEQ ID NO: 52] are 0.3%, 7.5% and 44.1%.
On the same counts, the results for HGQGTFTSDCSKQLDGQAAQEFVAWLLAGGPSSGAPPPS [Triple agonist of SEQ ID NO: 44] are under 0.1%, under 0.1% and 1.3%.
On to HGQGTFTSDCSKYMDGQAAQDFVAWLLAGGPSSGAPPPS [Triple agonist of SEQ ID NO: 45], for which, in the assay with human GIP receptor, the “In vitro activity … (%) vs GIP” value is under 0.1%. Moreover, in the assay with human GCG receptor, the “In vitro activity … (%) vs Glucagon” value is under 0.1%. The “In vitro activity … (%) vs GLP-1” value with human GLP-1 receptor is 6.6%.
In the case of HGQGTFTSDCSKYLDGQRAQEFVAWLLAGGPSSGAPPPS [Triple agonist of SEQ ID NO: 47], the “In vitro activity … (%) vs GIP” value in the assay with human GIP receptor is under 0.1%. Further, the “In vitro activity … (%) vs Glucagon” value with human GCG receptor was under 0.1%. In the assay with human GLP-1 receptor, the “In vitro activity … (%) vs GLP-1” value was 2.4%.
Take HGQGTFTSDCSKYLDGQRAQDFVNWLLAGGPSSGAPPPS [Triple agonist of SEQ ID NO: 48]: the “In vitro activity … (%) vs GIP” value in the assay with human GIP receptor is under 0.1%. Also, in the assay with human GCG receptor, the “In vitro activity … (%) vs Glucagon” value was under 0.1%. Besides, the “In vitro activity … (%) vs GLP-1” value in the assay with human GLP-1 receptor was found to be 1.5%.
For HGQGTFTSDCSKYLDEQHAQEFVAWLLAGGPSSGAPPPS [Triple agonist of SEQ ID NO: 46], the “In vitro activity … (%) vs GIP” value with human GIP receptor is under 0.1%. In addition, the “In vitro activity … (%) vs Glucagon” value in the assay with human GCG receptor was under 0.1%. In addition, the “In vitro activity … (%) vs GLP-1” value with human GLP-1 receptor was found to be 1.4%.
Y[Aib]QGTFTSDYSKYLDECRAKDFVQWLLDHHPSSGQPPPS (bridge 16-20) [Triple agonist of SEQ ID NO: 66]: the “In vitro activity … (%) vs GIP” value with human GIP receptor amounted to 17.2%. The “In vitro activity … (%) vs Glucagon” value with human GCG receptor stood at 172%. Further, in the assay with human GLP-1 receptor, the “In vitro activity … (%) vs GLP-1” value was 15.8%.
For {Acetyl(2-(4-imidazolyl))}-[Aib]QGTFTSDCSKYLDERAAQDFVQWLLDGGPSSGAPPPS [Triple agonist of SEQ ID NO: 63], the “In vitro activity … (%) vs GIP” value with human GIP receptor was under 0.1%. Moreover, in the assay with human GCG receptor, the “In vitro activity … (%) vs Glucagon” value was under 0.1%. Besides, in the assay with human GLP-1 receptor, the “In vitro activity … (%) vs GLP-1” value is 15.3%.
As to H[Aib]QGTFTSDVSSYLLGQQQKEFIAWLVKGGGPSSGAPPPSC [Triple agonist of SEQ ID NO: 5], the “In vitro activity … (%) vs GIP” value with human GIP receptor was under 0.1%. The “In vitro activity … (%) vs Glucagon” value with human GCG receptor is under 0.1%. For the same molecule, the “In vitro activity … (%) vs GLP-1” value with human GLP-1 receptor was 42.1%.

B1: Triple agonist of SEQ ID NO: 56 (peptide)
peptide: H[Aib]QGTFTSDYSKYLDEKRQKEFVNWLLAQC
modifications: bridge (positions not given here); also: ring formation between underlined amino acids, places not given here
Consider B1, for which, in the assay with human GIP receptor, the “In vitro activity … (%) vs GIP” value was 0.8%. The “In vitro activity … (%) vs Glucagon” value in the assay with human GCG receptor was 4.9%. The “In vitro activity … (%) vs GLP-1” value with human GLP-1 receptor was determined as 57.9%.
The like results for H[Aib]QGTFTSDYSIAMDEIHQKDFVNWLLNTC (bridge 16-20) [Triple agonist of SEQ ID NO: 57] were, in that order, 0.3%, under 0.1% and 11.7%.
The like results for H[Aib]QGTFTSDYSIAMDEIHQKDFVNWLLAQC (bridge 16-20) [Triple agonist of SEQ ID NO: 55] were, in that order, 2.4%, 0.7% and 27.1%.
On the same counts, the results for {Acetyl(2-(4-imidazolyl))}-[Aib]QGTFTSDYSICMDEIHQKDFVNWLLNTK (bridge 15-19) [Triple agonist of SEQ ID NO: 49] are 3.3%, under 0.1% and 29.8%.
Take {Acetyl(2-(4-imidazolyl))}-[Aib]QGTFTSDKSKYLDERAAQDFVQWLLDGGPSSGAPPPS [Triple agonist of SEQ ID NO: 62]: the “In vitro activity … (%) vs GIP” value with human GIP receptor was under 0.1%. The “In vitro activity … (%) vs Glucagon” value with human GCG receptor was under 0.1%. The “In vitro activity … (%) vs GLP-1” value with human GLP-1 receptor was determined as 5.2%.
As to H[Aib]QGTFTSDVSSYLDGQAAKEFVAWLLKGC [Triple agonist of SEQ ID NO: 6], the “In vitro activity … (%) vs GIP” value in the assay with human GIP receptor is under 0.1%. For the same molecule, the “In vitro activity … (%) vs Glucagon” value with human GCG receptor is under 0.1%. In the assay with human GLP-1 receptor, the “In vitro activity … (%) vs GLP-1” value turned out to be 17%.
As for {Acetyl(2-(4-imidazolyl))}-[Aib]QGTFTSDYSIAMDEKHCKDFVNWLLNTK (bridge 15-19) [Triple agonist of SEQ ID NO: 60], the “In vitro activity … (%) vs GIP” value in the assay with human GIP receptor amounted to 18.2%. In the assay with human GCG receptor, the “In vitro activity … (%) vs Glucagon” value is under 0.1%. In addition, in the assay with human GLP-1 receptor, the “In vitro activity … (%) vs GLP-1” value was found to be 106%.
On the same counts, the results for H[Aib]QGTFTSDYSKYLDEKRQKEFVQWLLNTKC (bridge 16-20) [Triple agonist of SEQ ID NO: 58] are 0.2%, 2.6% and 39.1%.
For the molecule H[Aib]QGTFTSDYSKYLDEKRQKEFVQWLLNTC (bridge 16-20) [Triple agonist of SEQ ID NO: 51], the “In vitro activity … (%) vs GIP” value with human GIP receptor amounted to 0.1%. Further, in the assay with human GCG receptor, the “In vitro activity … (%) vs Glucagon” value turned out to be 2%. In addition, the “In vitro activity … (%) vs GLP-1” value in the assay with human GLP-1 receptor came to 14.4%.
In the case of {Acetyl(2-(4-imidazolyl))}-[Aib]QGTFTSDYSICMDEKHQKDFVNWLLNTK (bridge 15-19) [Triple agonist of SEQ ID NO: 59], the “In vitro activity … (%) vs GIP” value with human GIP receptor was 4%. In addition, the “In vitro activity … (%) vs Glucagon” value with human GCG receptor is under 0.1%. Further, the “In vitro activity … (%) vs GLP-1” value in the assay with human GLP-1 receptor came to 40.3%.
On the same counts, the results for Y[Aib]QGTFTSDYSKYLDECAAKEFVQWLLDHHPSSGQPPPS (bridge 16-20) [Triple agonist of SEQ ID NO: 64] are 92.9%, 60.1% and 64.6%.
On the same counts, the results for H[Aib]EGTFTSDYSIAMDEIHQKDFVNWLLAQC (bridge 16-20) [Triple agonist of SEQ ID NO: 53] are 1.3%, 8.4% and 161%.
Take H[Aib]EGTFTSDYSIAMDEIHQKDFVDWLLAEC (bridge 16-20) [Triple agonist of SEQ ID NO: 54]: the “In vitro activity … (%) vs GIP” value with human GIP receptor came out at 0.1%. Besides, in the assay with human GCG receptor, the “In vitro activity … (%) vs Glucagon” value came out at 1.4%. Besides, the “In vitro activity … (%) vs GLP-1” value with human GLP-1 receptor is 30.6%.
